These results are taken from paper PMC7497807 (Blood cancer discovery, 2020).

Holding throughout (test): fluorescence polarisation
(Fluorescence polarisation rises when a labelled molecule tumbles more slowly, as on binding a larger partner.)

Test [1] has as its target T1, BCOR (aa 1176–1225)-FITC (UniProt Q6W2J9 1176-1225, fluorescein (printed as BCOR (aa 1176–1225)-FITC)).
T1 peptide (looked up): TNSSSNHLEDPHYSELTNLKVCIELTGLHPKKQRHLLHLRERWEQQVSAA

The target of test [2] is fluorescein-labeled CBX8 peptide (FITC-CBX8) (fluorescein (printed as FITC-CBX8)).
Test [3] has as its target MBP-AF9.

Chain of MBP-AF9 (P42568 whole entry): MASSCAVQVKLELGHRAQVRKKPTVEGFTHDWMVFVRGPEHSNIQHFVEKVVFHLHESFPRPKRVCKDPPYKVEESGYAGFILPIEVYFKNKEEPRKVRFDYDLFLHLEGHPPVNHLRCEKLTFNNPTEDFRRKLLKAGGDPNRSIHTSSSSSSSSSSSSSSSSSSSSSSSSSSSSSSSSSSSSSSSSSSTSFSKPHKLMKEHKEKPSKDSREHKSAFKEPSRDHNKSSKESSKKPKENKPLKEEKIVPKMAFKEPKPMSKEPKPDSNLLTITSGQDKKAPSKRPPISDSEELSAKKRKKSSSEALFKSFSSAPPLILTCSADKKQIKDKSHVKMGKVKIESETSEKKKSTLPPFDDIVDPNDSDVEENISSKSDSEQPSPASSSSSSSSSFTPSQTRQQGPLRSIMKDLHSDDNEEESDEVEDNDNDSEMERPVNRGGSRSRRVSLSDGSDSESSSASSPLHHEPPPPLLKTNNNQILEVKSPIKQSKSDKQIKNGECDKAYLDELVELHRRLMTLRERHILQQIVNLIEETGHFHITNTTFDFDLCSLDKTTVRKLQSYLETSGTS

B1: MBP-ENL (domain or fragment)
chain: YTDELVELHRRLMALRERNVLQQIVNLIEETGHFNVTNTTFDFDLFSLDETTVRKLQSCLE
As to B1, the “fold tighter binding to MBP-ENL than to MBP-AF9” value in test [1] turned out to be 9 fold. The molecule also came in with a Kd in test [2] of 112 ± 13 nM. For the molecule AQGGRPSLIARIPVARILGDPEEE [unlabeled CBX8 WT peptide], the IC50 in test [3] was 1880 ± 202 nM.

By Kd is commonly meant the concentration at which binding is half-saturated. As a reminder, the IC50 is the concentration at which inhibition is half-maximal.
